Results as given in patent JP2023014062A (dated 2023).

Legend:
[1] = target: T1, B.1.1.7変異株(アルファ株又は英国株)のSタンパク質のRBDタンパク質 (SARS-CoV-2 B.1.1.7変異株, UniProt P0DTC2 322-536); assay: ELISA, RBD coated at 2 μg/ml, Expi293 culture supernatant, HRP anti-human IgG
T1 construct: range 322-536

[2] = target: T2, B.1.351変異株(ベータ株又は南ア株)のSタンパク質のRBDタンパク質 (SARS-CoV-2 B.1.351変異株, UniProt P0DTC2 322-536); assay: as above
T2 construct: range 322-536

B1: 抗体NCV2SG53 (antibody, V domains shown)
VH: QVQMVESGGGLVRPGGSLRLSCAASGFTFSDYYMSWIRQAPGKGLEWISYISSSGSSMNYADSVKGRFTISRDNAKNSLFLQMNSLRAEDTAVYYCAREFDLTKIIMVPPYWGQGTLVTVSS
VL: AIQLTQSPSSLSASVGDRVTITCRASQGISSYLAWYQQKPGKAPKVLIYAASTLQSGVPSRFSGSGSGTDFTLTISSLQPEDFATYYCQQLKSYPLTFGGGTKVEIT
binding result [1]: binds | binding result [2]: binds
